US20220387586A1 (Hoffmann-La Roche, published 2022)

Key:
[1] = target: T1, human Fc tagged human Lag3 extra cellular domain (human, UniProt P18627 29-450, biotinylated in the epitope binning, the SA CAP SPR and the FACS competition assay); experiment: FACS, inhibition of biotinylated Lag3:Fc binding to MHC-II on A375 cells (competitor MHC-II); antibody 10 µg/ml
T1 construct: In-house fusion; also called huLag3-Fc; biotinylated, huFc-tagged huLag3; not shown: human Fc tag
T1 sequence: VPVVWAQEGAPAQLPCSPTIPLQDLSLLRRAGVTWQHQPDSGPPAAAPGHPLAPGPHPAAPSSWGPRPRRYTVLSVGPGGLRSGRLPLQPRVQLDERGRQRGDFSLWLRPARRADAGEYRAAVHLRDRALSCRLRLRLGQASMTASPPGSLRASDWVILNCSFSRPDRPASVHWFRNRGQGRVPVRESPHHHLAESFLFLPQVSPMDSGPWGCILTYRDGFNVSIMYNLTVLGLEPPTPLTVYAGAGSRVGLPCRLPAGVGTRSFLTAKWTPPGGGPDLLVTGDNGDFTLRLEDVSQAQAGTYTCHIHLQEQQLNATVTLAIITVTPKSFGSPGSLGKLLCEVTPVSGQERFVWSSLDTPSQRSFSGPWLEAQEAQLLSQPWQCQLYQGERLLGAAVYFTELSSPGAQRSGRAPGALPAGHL
Method: This analysis was studied in a FACS competition experiment: A375 cells (ATCC, #CRL-1619) were cultured for 2-3 passages in EM Eagle's medium supplemented with EBSS (PAN, cat.no. #P04-00509), 10% FBS, 2 mM L-Glutamin, 1×NEAA and 1× Sodium Pyruvate. All antibodies, were diluted in FACS buffer to a final concentration of 20 μg/ml in 25 μl (in 96well U-bottom plates). […] A375 cells were washed with PBS and adjusted to 3×10⁶ cells/ml in PBS. 100 μl were seeded per well in a 96well V-bottom plate. Plates were centrifuged and supernatant was removed. […] After this, cells were washed with 200 μl FACS buffer. […] After staining, cells were again washed and then transferred in 150 μl FACS buffer (PBS/2% FBS) to a U-bottom plate and analyzed on a FACS Canto-II using an HTS module.
All antibodies were used at 10 μg/ml final concentration.

[2] = target: T2, cynomolgus LAG3 on cells (cynomolgus); experiment: flow cytometry on HEK293F cells transfected with cyno-LAG-3, antibody 10 µg/ml
T2 construct: whole, on cells; also called cyno-LAG-3; cynoLAG3
Method: 1.5×10⁵ cells/well were seeded into 96-well plates. […] HEK cells were incubated with indicated antibodies for 45 min on ice, washed twice with 200 μl ice-cold PBS buffer containing 2% FBS, before secondary antibody (APC-labelled goat anti-human IgG-kappa, Invitrogen, cat.no. #MH10515) was added (1:50 diluted in FACS-Puffer/well) and further incubated for 30 min on ice. Cells were again washed twice with 200 μl ice-cold PBS/2% FBS buffer before samples were finally resuspended in 150 μl FACS buffer and binding was measured on FACS CANTO-II HTS Module.

[3] = target: T3, LAG3 on cells (recombinant CHO cells expressing Lag3) (human, UniProt P18627 29-525); experiment: cell ELISA on recombinant CHO cells expressing Lag3
T3 construct: The cell ELISA paragraphs say only 'Lag3'; also called CHO-LAG3; Lag3 cells
T3 sequence: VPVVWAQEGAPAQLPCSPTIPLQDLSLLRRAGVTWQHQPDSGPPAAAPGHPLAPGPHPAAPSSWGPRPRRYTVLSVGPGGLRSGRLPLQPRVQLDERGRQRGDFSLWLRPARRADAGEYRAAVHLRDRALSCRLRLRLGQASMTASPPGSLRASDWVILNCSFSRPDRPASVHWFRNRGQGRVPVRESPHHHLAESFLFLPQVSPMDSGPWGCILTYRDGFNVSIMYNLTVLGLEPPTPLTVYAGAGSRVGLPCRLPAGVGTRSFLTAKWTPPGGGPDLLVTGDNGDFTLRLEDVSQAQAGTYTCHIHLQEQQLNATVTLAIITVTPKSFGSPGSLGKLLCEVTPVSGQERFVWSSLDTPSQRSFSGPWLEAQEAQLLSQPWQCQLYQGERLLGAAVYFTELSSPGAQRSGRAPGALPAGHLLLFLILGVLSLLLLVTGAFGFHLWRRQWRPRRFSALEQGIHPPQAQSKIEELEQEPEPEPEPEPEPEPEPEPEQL
Method: After washing (1×90 μl in PBST) cells were fixed by addition of 30 μl/well glutaraldehyde to a final concentration of 0.05% (Sigma Cat.No: G5882), 10 min at room temperature. After washing (3×90 μl/well with PBST-buffer) 25 μl/well goat anti-Human Ig κ chain antibody-HRP conjugate (Milipore, AP502P) was added in a 1:1000 dilution and incubated at RT for 1 h. After washing (3×90 μl/well with PBST-buffer) 25 μl/well TMB substrate (Roche, 11835033001) was added and incubated for 6-10 min. Measurement took place on a Tecan Safire 2 instrument at 370/492 nm.

[4] = target: T4, biotinylated-Lag3 (UniProt P18627 23-450, limits assumed, biotinylated); experiment: ELISA, inhibition of biotinylated-Lag3 binding to MHC-II on A375 cells (competitor MHC-II); first of two numbers; first of two series in the cell
T4 construct: Probably a human LAG3 ECD construct; also called Lag3 (MHCII/ELISA)
T4 sequence (looked up): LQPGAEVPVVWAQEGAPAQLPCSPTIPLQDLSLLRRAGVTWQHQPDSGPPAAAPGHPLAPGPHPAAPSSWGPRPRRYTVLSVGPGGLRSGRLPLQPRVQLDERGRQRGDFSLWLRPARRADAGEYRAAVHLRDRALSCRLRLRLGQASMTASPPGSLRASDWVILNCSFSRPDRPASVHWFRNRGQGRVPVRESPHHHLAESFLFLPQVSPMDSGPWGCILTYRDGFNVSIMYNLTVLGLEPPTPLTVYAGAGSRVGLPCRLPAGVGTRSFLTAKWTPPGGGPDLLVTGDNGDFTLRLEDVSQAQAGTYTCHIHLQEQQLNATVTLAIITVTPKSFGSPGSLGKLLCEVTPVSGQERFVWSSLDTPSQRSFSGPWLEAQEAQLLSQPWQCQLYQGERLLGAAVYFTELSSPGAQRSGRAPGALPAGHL

[5] = target: T4, biotinylated-Lag3; experiment: ELISA, inhibition of biotinylated-Lag3 binding to MHC-II on A375 cells (competitor MHC-II); second of two numbers; second of two series in the cell (the series of '/0.4' and '/1.0')
[6] = target: T3, LAG3 on cells (recombinant CHO cells …); experiment: cell-based or functional assay
[7] = target: T2, cynomolgus LAG3 on cells; experiment: flow cytometry on activated cynomolgus PBMC, 10 µg/ml (only 2nd Ab (hu): 7.62)
Method: Thus, cynomolgus peripheral blood mononuclear cells (PBMC) were prepared from fresh cynomolgus blood and were then activated by CD3/CD28 pre-treatment (1 μg/ml) for 2-3 days. […] After staining, cells were washed two times with PBS/2% FCS and analyzed on a FACS Fortessa (BD).

- % Inhibition [1]: 70%
- % pos. [2]: 41.2%
- GeoMean [2]: 3060
- CHO-cell ELISA inflexion point [3]: 75 ng/mL
- IC50 [4]: 0.8 nM
- IC50 [5]: 0.6 nM
- EC50 [nM] in Jurkat LAG3 + SED + Raji (NFAT luciferase), 2nd assay [6]: 8.6 nM
- % positive cyno cells (PBLs) after CD3/CD28 activation [7]: 22.1%
B1: Reference LAG3 antibody MDX25F7 (antibody, V domains shown)
VH: QVQLQQWGAGLLKPSETLSLTCAVYGGSFSDYYWNWIRQPPGKGLEWIGEINHNGNTNSNPSLKSRVTLSLDTSKNQFSLKLRSVTAADTAVYYCAFGYSDYEYNWFDPWGQGTLVTVSS
VL: EIVLTQSPATLSLSPGERATLSCRASQSISSYLAWYQQKPGQAPRLLIYDASNRATGIPARFSGSGSGTDFTLTISSLEPEDFAVYYCQQRSNWPLTFGQGTNLEIK
notes: also called MDX-25F7 (25F7); Medarex 25F7
